Reference: US10078082B2, “Detection of free and protein-bound non-human gal-alpha(1-3)-gal epitope” (National University of Ireland, Galway, priority 2012, dated 2018)
“And” between values parts separate entries of the source, which are not always exact repeats. Equal values may be shown once.

Experiments:
[1] = Thermal denaturation monitored by far UV CD ellipticity; type: physicochemical; settings: for HD / Tm: λ 208
Method: (§1) Two types of experiments were performed: firstly, the near UV circular dichroism (CD) spectra of the scFvs in the absence and presence of 4 mM of both disaccharides have been compared. Secondly, the effect of the disaccharides on the thermal stability of the scFvs has been studied.
Samples were diluted in NaPi (10 mM)-NaCl (150 mM) pH 7.2 and either concentrated by ultrafiltration twice (for small amounts) or exhaustively dialyzed. CD spectra were acquired at 20° C. in a J-810 spectropolarimeter, equipped with a Peltier temperature control system, using a bandwidth of 1 nm, a scan rate of 20 nm/min and a response time of 4 s, collecting data every 0.2 nm and 3 accumulations for each spectrum. Near-UV spectra were registered at around 1.0 mg ml^−1 protein concentration in 1-cm path-length cells while far-UV spectra were recorded in 0.1 cm path-length quartz cells at a protein concentration of around 0.2 mg ml^−1. For all CD spectra, the corresponding buffer baseline was subtracted. […] Ellipticity changes were collected every 0.2° C. and spectra were collected every 10° C. The thermal denaturation profiles were fitted to a sigmoidal function using the equation:—
where Θ(T) represents the ellipticity at temperature T (Kelvin), ΘN the ellipticity of the native protein, n the number of transitions, ΔΘ1 the ellipticity increment of transition i, R the gas constant and Tmi and HDi the temperature at the transition midpoint (melting temperature) and the parameter which describes the cooperativity (slope) of the corresponding transition, respectively.
In the second set of experiments, the thermal stability of the scFvs in the absence and presence of the disaccharides was investigated. With this type of experiment, we were able to get: 1) the far UV CD spectra at increasing temperatures, which gave information on changes in the secondary structure of the proteins upon heating and 2) the profile of the change in ellipticity at a certain wavelength, also with increasing temperatures, that allowed the calculation of the temperature of transition (Tm). Direct comparison of the Tm in the absence and presence of sugar provided information about the effect of the sugar on the scFvs, a thermal stabilisation (i.e. an increase in the Tm in the presence of the sugar) being indicative of interaction.

[2] = Near UV circular dichroism interaction study with disaccharides; type: binding; settings: pH 7.2, 20° C.
Method: The scFvs A4, A11 and G12 were used to check their interaction with Galα(1,3)Galβ1-OMe (Carbosynth) and with melibiose, the latter as negative control.
as §1
Samples were diluted in NaPi (10 mM)-NaCl (150 mM) pH 7.2 and either concentrated by ultrafiltration twice (for small amounts) or exhaustively dialyzed. CD spectra were acquired at 20° C. in a J-810 spectropolarimeter, equipped with a Peltier temperature control system, using a bandwidth of 1 nm, a scan rate of 20 nm/min and a response time of 4 s, collecting data every 0.2 nm and 3 accumulations for each spectrum. Near-UV spectra were registered at around 1.0 mg ml^−1 protein concentration in 1-cm path-length cells while far-UV spectra were recorded in 0.1 cm path-length quartz cells at a protein concentration of around 0.2 mg ml^−1. For all CD spectra, the corresponding buffer baseline was subtracted. Thermal stability was evaluated by measuring ellipticity changes at 208 nm while increasing temperature from 20 to 90° C., with a constant rate of 40° C./h. Ellipticity changes were collected every 0.2° C. and spectra were collected every 10° C. The thermal denaturation profiles were fitted to a sigmoidal function using the equation:—

[3] = NGC microarray specificity analysis (over 50 structures); type: binding; settings: FIG. 8
From the text: FIG. 8: Comparison of the specificity of selected scFv fragments A4, A11 and G12 against a panel of related NGCs compared directly to the specificity binding pattern of the lectin GS-1-B4, considered as highly specific for α-Gal residues.
The spectacular specificity of the scFvs has also been determined by analysis on an NGC microarray containing over 50 different structures. […] ScFv-based competitive ELISA. Competitive ELISAs were established with each of the three scFvs examined using as standard the free Gal-α-(1→3)-Gal disaccharide within the concentration range 0.001 to 10000 μg/ml (2.93 nM to 29.3 mM). […] A panel of 21 related sugars were tested in the scFv-based competitive assays (Table 1). […] All three scFvs were more reactive to the disaccharide than Gal-α-(1,3)-Gal-containing trisaccharides, as shown by lower inhibitory activity of the trisaccharides and supporting the results obtained in the direct ELISA.

[4] = scFv-based competitive ELISA, free Gal-α-(1→3)-Gal as standard, immobilized Gal-α-(1→3)-Gal-BSA; type: binding; settings: for ED50: free Gal-α-(1→3)-Gal disaccharide standard, plates coated with Gal-α-(1→3)-Gal-BSA 10 μg/ml, FIG. 6
Method: FIG. 6: Standard curves for competitive ELISA given by scFv clones G12, A4, and A11. Plates were coated with immobilized Gal-α-(1→3)-Gal-BSA [10 μg/ml] and incubated with 2.5 μg/ml of the scFvs in the presence of an increasing concentrations of free Gal-α-(1→3)-Gal. The error bars indicate the standard error of the mean of triplicate determinations. Each scFv was evaluated in a competitive ELISA format using free Gal-α-(1,3)-Gal as standard. Microtitre plate wells were coated and blocked as previously described. Standard solutions were prepared in PBS (pH 7.2), ranging in concentration from 2 μg/ml (5.84 μM) to 20 mg/ml (58.4 mM). For the assay, 50 μl of each standard and buffer blank were added to designated wells in triplicate, followed by 50 μl of a sub-saturating concentration (1 μg/ml) of the appropriate scFv, giving a final standard concentration in the assay of 1 μg/ml (2.92 μM) to 10 mg/ml (29.2 mM). The plate was incubated for 1 hour at 37° C. with shaking After washing, bound scFv was detected as previously described. The ratios of the OD for each standard versus the OD given by the blank (B/Bo) were plotted versus standard concentration and standard curve plotted using SigmaPlot (v11, Systat Software Inc). The detection limits were determined as the concentration corresponding to the mean response for zero standard minus three times the standard deviation (SD). Inhibition of scFv by a panel of free sugars. scFv binding to Gal-α-(1→3)-Gal-BSA was determined against a panel of 21 free form sugars; D-Cellibiose, Melibiose, D-Raffinose, Lactulose, Palatinose, β-Gentibiose, D+ Trehalose, D+ Turanose, L− Fructose, D+ Glucose, Sucrose, Galacto-N-biose, 4β-Galactobiose, gal-α(1-3)-gal-β-(1-4)-gal, gal-α(1-3)-gal-β-(1-4)-glc, gal-α(1-3)-gal-β-(1-4)-gal-all-3)-gal, Laminarbiose, β1-4-D-Xylobiose, N-Acetyl-D-glucoseamine (GlcNAc), Galactose, N-Acetyl-D-lactosamine (LacNAc), (sourced from Sigma Aldrich and Dextra, UK). Inhibitions were performed by serial dilutions of free sugars and a sub-saturating concentration scFv added to each dilution and pre-incubated for 60 minutes at 37° C., prior to performing ELISA against Gal-α-(1→3)-Gal-BSA as used throughout. The percent binding of the scFv was plotted against the […], and the 50% effective dose determined (ED50; dose of free sugar causing 50% displacement of the scFv).

[5] = in the presence of 4 mM Galα(1,3)Galβ1-OMe, 208 nm
[6] = 4 mM melibiose (negative control)

Molecule	HD ([1]; +4 mM Galα(1,3)Galβ1-OMe)	Tm ([1]; +4 mM Galα(1,3)Galβ1-OMe)	HD ([1]; +4 mM melibiose)	Tm ([1]; +4 mM melibiose)	HD ([1]; Pure scFv)	Tm ([1]; Pure scFv)	Change in cooperativity (HD) [1, 5]	Stabilisation (increase in Tm) [1, 5]	Change of near UV CD spectrum ([2]; 4 mM Galα(1,3)Galβ1-OMe)	Change of near UV CD spectrum [2, 6]	Specificity for the Gal-α-(1→3)-Gal epitope compared with GS-1-B4 [3]	ED50 ([4]; listed as A11)	ED50, composite standard curve ([4]; composite curve from 9 independent runs, FIG. 7, listed as A4)	ED50 ([4]; listed as A4)
scFv A11: chicken anti-Gal-α-(1→3)-Gal single chain antibody fragment, Seq Id No. 4; clone D9 has the same sequence (protein, Synthetic protein sequence forscFv-A11 antibody fragment for detecting non-human Gal-alpha(1-3)-Gal) scFv: QAALTQPSSVSANPGETVKITCSGGGSYGGSYYYGWYQQKSPGSAPVTVIYSNDNRPSDIPSRFSGSTSGSTSTLTITGVQVDDEAVYYCGTYDSSYVGIFGAGTALTVLGQSSRSSGGGSSGGGGSAVTLDESGGGLQTPGGGLSLVCKASGFTFSSYSMQWVRQTPGKGLEFVAGIGYSDSYTYFGPAVKGRATISRDNGQNTVRLQLNNLRAEDTATYYCARSADTIYGCTHPWCSADNIDAWGHGTEVIVSSTSGQAGQ	95 ± 6 kcal/mol	69.0 ± 0.2 °C	141 ± 7 kcal/mol	61.1 ± 0.1 °C	134 ± 7 kcal/mol	61.3 ± 0.1 °C	~38.5 kcal/mol	7.7 °C	No significant changes were observed	No significant changes were observed	much higher specificity	1225 μg/ml and 3.58 mM	–	–
scFv A4: chicken anti-Gal-α-(1→3)-Gal single chain antibody fragment, Seq Id No. 2 (protein, Synthetic protein sequence for scFv-A4 antibody fragment for detecting non-human Gal-alpha(1-3)-Gal) scFv: QAALTQPSSVSTNPGGTVKITCSGGNGNYGWYQQKSPGSAPVTVIYSNNKRPSDIPSRFSGSKSGSTATLTITGVQVDDEAVYFCGAYDNTYVGVFGAGTTLTVLGQSSRSSSGGGSSGGGGSAVTLDESGGGLQTPGGGLSLVCKASGFTFSSYSMQWVRQTPGKGLEFVAGIGYSDSYTYFGPAVKGRATISRDNGQNTVRLQLNNLRAEDTATYYCARSADTIYGCTHPWCSADNIDAWGHGTEVIVSSTSGQAGQ	52 ± 3 kcal/mol	74.8 ± 0.3 °C	–	–	57 ± 3 kcal/mol	64.6 ± 0.2 °C	~4.7 kcal/mol	–	molar ellipticity per residue in general decreased	remained unchanged	much higher specificity	–	327 μg/ml and 0.95 mM	311 μg/ml and 0.91 mM
